From patent publication US7452965B2, “Colon tumor specific binding peptides” (University of Utah Research Foundation, priority 2002, dated 2008)

How the values were obtained:
HT29 cells [1] = assay: MTT viability of protease-treated cells; type: cell-based; details: MTT 45 minutes at 37° C. after protease treatment
Description: (§1) In order to further this observation, HT29 cells were treated with active or boiled proteases to determine the effect of treatment on the ability of an RPM displaying phage to bind. HT29 cells were treated with active or boiled collagenase for 15 minutes, trypsin for 5 minutes, or proteinase K for 0.5 minutes at 37° C. After protease treatment, cells were washed, then an equal number of phage were added and allowed to bind. […] The decrease in phage binding to the HT29 cells was due to the protease activity since boiling the proteases abolished the effect with phage binding returning to levels of that observed for PBS treated cells (FIG. 6B). […] After treating HT29 cells with proteases as described above, MTT was added to the cells and incubated for 45 minutes at 37° C. After incubation, the cells were solubilized with 0.1N HCl in isopropanol and the absorbance due to MTT incorporation was determined.

HT29 cells [2] = assay: Protease assay: RPM phage binding to protease-treated cells; details: 37° C.
Description: HT29 cells were incubated at 37° C. with either active or boiled Collagenase diluted 1:20 for 10 minutes, Trypsin-EDTA 0.25% (Gibco) for 5 minutes or Proteinase K (Gibco) diluted 1:600 for 1 minute. After incubation, cells were then incubated with RPM bearing phage as described above. The number of phage remaining bound was quantified by real time PCR.
as §1

B1: proteinase K: protease used to treat HT29 cells (protein, UniProt P06873 106-384, looked up)
Proteinase K: AAQTNAPWGLARISSTSPGTSTYYYDESAGQGSCVYVIDTGIEASHPEFEGRAQMVKTYYYSSRDGNGHGTHCAGTVGSRTYGVAKKTQLFGVKVLDDNGSGQYSTIIAGMDFVASDKNNRNCPKGVVASLSLGGGYSSSVNSAAARLQSSGVMVAVAAGNNNADARNYSPASEPSVCTVGASDRYDRRSSFSNYGSVLDIFGPGTSILSTWIGGSTRSISGTSMATPHVAGLAAYLMTLGKTTAASACRYIADTANKGDLSNIPFGTVNLLAYNNYQA
HT29 cells [1]
  average absorbance (MTT incorporation) of treated cells: 0.183
HT29 cells [2]
  decrease of RPM phage binding to active protease treated HT29 cells: 90%
